Tests used:
[1] = target: 扎依尔型GP蛋白 (扎依尔型埃博拉病毒 (ZEBOV)); assay: cell-based or functional assay
[2] = target: 苏丹型GP蛋白 (苏丹型埃博拉病毒 (SUDV)); assay: cell-based or functional assay
[3] = target: 马尔堡病毒GP蛋白 (马尔堡病毒 (MARV)); assay: cell-based or functional assay
[4] = target: 扎依尔型GP蛋白 (扎依尔型埃博拉病毒 (ZEBOV)); assay: ELISA, GP protein coated on plate, goat anti-human IgG-HRP detection
[5] = target: 苏丹型GP蛋白 (苏丹型埃博拉病毒 (SUDV)); assay: as above
[6] = target: 马尔堡病毒GP蛋白 (马尔堡病毒 (MARV)); assay: as above

B1: 单克隆抗体40C1L (antibody, V domains shown)
VH: EVQLVQSGAEVKRPGESLKISCKTSGYSFPTYWITWVRQMPGKGLEWMGTIDLSDSETKYSPSFDGQVTISADKSINTAYLQWSSLKASDSATYYCAMRYSNYRTWFNVWGPGVLVTVSS
VL: SYDLTQPPSVSVSPGQTARITCGGDNIGSEAVHWYQQQPPQAPVLVIYYNRERPSGIPERFSGSKSGNTATLTISGVEAGDEADYYCQLWDSSSDYPLFGGGTRLTVL
Question: What does the source list for B1?
Answer: 假病毒中和 最大半数抑制浓度(IC50) [1]: 25.3 µg/mL; 假病毒中和 最大半数抑制浓度(IC50) [2]: 3.12 µg/mL; 假病毒中和 最大半数抑制浓度(IC50) [3]: 14.5 µg/mL; EC50 [4]: 0.697 µg/mL; EC50 [5]: 2.09 µg/mL; EC50 [6]: 0.342 µg/mL

Source: patent publication CN110655572A
